Laboratory results taken from patent US20120027684A1 (IMMATICS BIOTECHNOLOGIES, published 2012).

Biological target: HLA A*0201 (human)
Experiment: ELISA-based peptide-HLA binding method (Sylvester-Hvid et al., 2002)

binding result: binds
Binder: LLGATCMFV (also called cyclin peptide CCN-001) [CCN-001]
